US20220073643A1 (NANJING GENSCRIPT BIOTECH, published 2022)

target: human Claudin18.2 (human); assay: cell-based or functional assay

Binder	CDC % Relative activity	CDC EC50
275H9A2 (antibody, V domains shown) VH: QAYLQQSGAELVRSGASVKMSCRASGYSFTSHNMHWVKQTPGQGLEWIGYIYPGNGGSYYNQKFKGKAILTADTSSSTAYMQISSLTSEDSAVYFCTRDYYGNSFVYWGQGTLVTVSA VL: DVVMTQSPSSLTEKTGEKVSMSCKSSQSLLNSGNQKNYLTWYQQKPGQPPKLLIYWASTRESGVPDRFTGSGSGTDFTLTISSLQTEDLAVYYCQNNFRYPFTFGAGTKLELK	142%	1.15 µg/mL
392C2F10 (antibody, V domains shown) VH: EVQLQQSGPELVKPGASMKISCKASGYSFTGYTMNWVKQSLGKNLEWIGLINPFNGGTTYNQKFKGKATLTVDKSSSTAYMELLSLTSDDSAVYYCTRGDYWGQGTTLTVSS VL: DIVMTQSPSSLTVTAGEKVTMSCKSSQSLLNSGNQKNYLTWYQQKPGQPPKLLIYWASTRESGVPDRFAGSGSGTDFTLTISSVQAEDLAVYYCQSDYSYPTFGAGTKLELK	5.43%	47.6 µg/mL
394C2G5 (antibody, V domains shown) VH: DVQLVESGGGLVQPGGSRKLSCAASGFTFSGFGMHWIRQTPEKGLEWVAYVSSGSRPIYYADTVKGRFTISRDNPKNTLFLQMTSLRSEDTAMYFCARFYYGNSFDHWGQGTLVTVSA VL: DIVMTQSPSFLTVTAGEKVTMSCKSSQSLLNSGNQKNYLTWYQQKPGQPPKLLIYWASTRESGVPDRFTGSGSGTDFTLTINNVQAEDLALYYCQNAYSFPLTFGAGTKLELT	131%	1.98 µg/mL
405G8F11 (antibody, V domains shown) VH: DVQLVESGGGLVQPGGSRKLSCVTSGFTFSSFGMHWVRQAPEKGLEWVAYISSGSSPIYYADTVKGRFTISRDNPKNTLFLQMSSLRSEDTAMYFCARFYYGNSFAYWGQGTLVTVSA VL: DIVMTQSPSSLTVTAGEKVTMNCKSSQSLLNSGNQKNYLTWYQQKLGQPPKLLMYWASTRESGVPDRFTGSGSGTDFTLTISSVQAEDLAVYFCQSAFSYPLTFGAGTKLELK	0.08%	3220 µg/mL
273C10E5 (antibody, V domains shown) VH: QVQLQQSGAELVKPGASVKLSCKASGYTFTSFGINWLRQRPEQGLEWIGWIFPGDGNSKYNENFKGKATLTTDKSSSTAYMQVTRLTSEDSAVYFCARFYYGNSFANWGQGTLVTVSA VL: DIVMTQSPSSLTVTAGEKVTMSCKSSQSLLNSGNQKNYLTWYQQKPGQPPKLLIYWAATRESGVPDRFAGSGSGTDFTLTISSVQAEDLAVYYCQNDYFYPFTFGAGTKLELK	67.6%	2.41 µg/mL
392A11C8 (antibody, V domains shown) VH: DVQLVESGGGLVQPGGSRKLSCAASGFTFSGFGMHWIRQTPEKGLEWVAYISSGSRPIYYADTVKGRFTISRDNPKNTLFLQMTSLRSEDTAMYFCARFYYGNSFDHWGQGTLVTVSA VL: DIVMTQSPSFLTVTAGEKVTMSCRSSQSLLNSGNQKNYLTWYQQKPGQPPKLLIYWASTRESGVPDRFTGSGSGTDFTLTISSVQAEDLALYYCQNAYSFPLTFGAGTKLELK	133%	1.95 µg/mL
370E2B12C3 (antibody, V domains shown) VH: QVQLKESGPGLVAPSQSLSITCTVSGFSLTTYGVHWVRQPPGKGLEWLGVIWAGGSTNYNSALMSRVSINKDNSKSQVFIKMNSLQADDTALYYCARAAYYGNGLDYWGQGTTLTVSS VL: DIVMTQSPSSLTVTAGEKVTMSCKSSQTLLNSGNQKNYLTWYQQKPGQPPKLLIYWASTGESGVPDRFTGSGSGTDFTLTISSVQAEDLAVYFCQNAYFYPFTFGGGTKLEIK	379%	0.453 µg/mL
395B3C11 (antibody, V domains shown) VH: DVQLVESGGGLVQPGGSRKLSCAASGFTFSGFGMHWIRQTPEKGLEWVAYISSGSRPIYYADTVQGRFTISRDNPKNTLFLQMTSLRSEDTAMYFCARFYYGNSFDHWGQGTLVTVSS VL: DIVMTQSPSFLTVTAGEKVTMSCKSSQSLLNSGNQKNYLTWYQQKPGQPPKLLIYWASTRESGVPDRFTGSGSGTDFTLTISSVQAEDLALYYCQNAYSFPLTFGAGTKLELK	144%	1.8 µg/mL
280F3B6 (antibody, V domains shown) VH: QAYLQQSGAELVRSGASVKMSCKASGYTFTSHNMHWVKQTPGQGLEWIGYIYPGNGGTNYNQKFKGKATLTADTSSSTAYMQISSLTSEDSAVYFCTRDYYGNSFAYWGQGTLVTVSA VL: DIVMTQSPSSLTEKAGERVSMSCKSSQSLFNSGNQKNYLTWYQQKPGQPPKLLIYWASTRESGVPDRFTGSGSGTDFTLTISSVQAEDLAVYYCQNDYWYPFTFGAGTKLELK	121%	1.35 µg/mL
286C7F11 (antibody, V domains shown) VH: QVQLKESGPGLVAPSQSLSITCTVSGFSLTDYGVSWIRQPPGKGLEWLGVIWNRGNTYYNSALKSRLSISKDNSKSQVFLRMNSLQTDDTAMYYCAKHDFLRFLDYWGQGTTLTVSS VL: DVVMTQSPSSLTVTAGEKVTMSCKSSQSLLNSGNQKNYLTWYQQKPGQPPKILIYWASTRESGVPDRFTGSGSGTDFSLTITSVQAEDLAVYYCLNDYYYPLTFGAGTKLELK	107%	1.52 µg/mL
391F1G2 (antibody, V domains shown) VH: DVQLVESGGGLVQPGGSRKLSCAASGFTFSSFGMHWVRQAPEKGLEWVAYISSGSSPIYYADTVKGRFTISRDNPKNTLFLQMTSLRSEDTAMYFCARIYYGNSFAYWGQGTLVTVSA VL: DIVMTQSPSSLTVTAGEKVAMSCKSSQTLLNSGNQKNYLTWYQQKPGQPPKLLLYWASTRESGVPDRFTGSGSGTDFTLTISSVQAEDLAVYYCQNAYYYPLTFGSGTKLELK	176%	1.47 µg/mL
198F10B8 (antibody, V domains shown) VH: QAYLQQSGAELVRSGASVRMSCKASGYTFSSYNMHWVKQTPGQGLEWIGYIYPGNGGTNYNQKFKDKATLTADTSSSTAFIQISSLTSEDSAVYFCLTGRGFAYWGQGTLVTVSA VL: DIVMTQSPSSLTVTAGERVTMSCKSSQSLFNSGNQKNYLTWYQQKPGQPPKLLIYRASTRESGVPDRFTGSGSGTDFTLTISSVQAEDLAVYYCQNDYSYPLTFGVGTKLELK	526%	0.3 µg/mL
393C2C5 (antibody, V domains shown) VH: DVQLVESGGGLVQPGGSRKLSCAASGFTFSSFGMHWVRQAPEKGLEWVAYISSGSSPIYYADTVKGRFTISRDNPKNTLFLQMTSLRSEDTAMYFCATFYYGNSFAYWGQGTLVTVSA VL: DIVMTQSPSSLTVTAGEKVTMSCKSSQTLLNSGNQKNYLTWYQQKSGQPPKLLIYWASTRESGVPDRFTGSGSGTDFTLTISSVQAEDLAVYYCQNAYSYPVTFGSGTKVELK	285%	0.909 µg/mL
273F3D4 (antibody, V domains shown) VH: QVQLKESGPGLVAPSQSLSITCTVSGFALTTYGVSWVRQPPGKGLEWLGVIWGDGSTHYHSALISRLSIRKDNSKSQVFLKLNSLQTDDTATYYCAKPGRGNAMDYWGQGTSVTVSS VL: DIVMSQSPSSLTVTAGEKVTMSCKSSQSLLNSGNQKNYLTWYQQKPGQSPKLLIYWASTRESGVPDRFTGSGSGTDFTLTISSMQAEDLAVYYCQNDYIYPLTFGAGTMLELK	105%	1.56 µg/mL
279E8B8 (antibody, V domains shown) VH: QAYLQQSGAELVRSGASVKISCKASGYTFASHNMHWVKQTPGQGLEWIGYIYPGNGGTKYNQKFTGKATLSADTSSSTAYLQISSLTSEDSAVYFCARDYFGNSFVYWGQGTLVTVSA VL: DIVMTQSPSSLTEKAGEKVSMRCKSSQSLLNSGNQKNYLTWYQQKPGQPPKLLIYWASTRESGVPDRFTGSGSGTDFTLTISSVQADDLAVYYCQNDYMYPFTFGAGTKLELK	129%	1.27 µg/mL
277F1F8 (antibody, V domains shown) VH: QAYLQQSGPELVRSGASVKMSCKASGYTFTSHNMHWVKQTPGQGLEWIGYINPGNGGNNYNQKFKGKATLTADTSSSTAYMQISSLTSEDSAVYFCARDYYGNSFAFWGQGTLVTVSA VL: DIVMTQSPSSLTETAGEKVSMSCKSSQSLLNSGNQKNYLTWYQQKPGQPPKLLIYWASTRESGVPDRFTGSGSGTDFTLTISSVQAEDLAVYYCQNDYRFPFTFGAGTKLELK	106%	1.54 µg/mL
292D9C7 (antibody, V domains shown) VH: QVQLKESGPGLVAPSQSLSITCTVSGFSLTDYGVSWIRQPPGKGLEWLGVIWGGGNAYYNSALKSRLSISKDNSKSQVFLKMNSLRTDDTAMYYCAKNGLLRYLDYWGQGSTLTVSS VL: DTVMTQSPSSLTVTAGEKVTMSCKSSQSLLNSGNQKNYLTWYQQKPGQPPKLLIYWASTRESGVPDRFTGSGSGRDFTLTISSVQVEDLAIYYCQNDYYYPLTFGAGTKVELK	151%	1.14 µg/mL
275B2G2 (antibody, V domains shown) VH: EVMLVESGGGLVKPGGSLKLSCAASGFTFRDYTMSWVRQTPEKRLEWVATSIIGGTYTYYPDSVKGRFTISRDNVKNTLYLQMSSLRSEDTAMYYCSRLGRGNAMDYWGQGTSVTVSS VL: DIVMTQSPSSLTVTAGEKVTMSCKSSQSLLNSGNQKNYLTWYQQKPGQPPKLLIYWASTRESGVPDRFTGSGSGTDFTLTISSVQAEDLAVYYCQNDYSYPFTFGSGTKLEIK	98.4%	1.66 µg/mL
391H11H3 (antibody, V domains shown) VH: DVQLVESGGGLVQPGGSRKLSCAASGFTFSGFGMHWIRQTPEKGLEWVAYISSGSRPIYYADTVQGRFTISRDNPKNTLFLQMTSLRSEDTAMYFCARFYYGNSFDHWGQGTLVTVSS VL: DIVMTQSPSFLTVTAGEKVTMSCKSSQSLLNSGNQKNYLTWYQQKPGQPPKLLIYWASTRESGVPDRFTGSGSGTDFTLTISSVQAEDLALYYCQNAYSFPLTFGAGTKLELK	125%	2.07 µg/mL
